Like-named read-outs stand apart in the source and are kept apart here.

Here are results for one molecule from US20130123349A1.

The target of experiment [1] is T1, GFOGER peptide, GPC(GPP)5GFOGER(GPP)5GPC, cross-linked. Description: SPR, Aegyptin over immobilized cross-linked GFOGER peptide, two-state model; Ka1. In general terms: SPR reads the build-up and loss of mass on a sensor chip optically.
The target of experiment [2] is T1, GFOGER peptide, …. Description: SPR, Aegyptin over immobilized cross-linked GFOGER peptide, two-state model; Kd1.
The target in experiment [3] is T2, […] peptide, GPC-(GPP)5-[…]-(GPP)5-GPC-NH2, cross-linked.
Experiment [4] deals with T2, […] peptide, …. Put plainly: SPR, Aegyptin over immobilized cross-linked RGQOGVMGFO peptide, two-state model.
Experiment [5] addresses T2, […] peptide, …. The source holds these as a separate data set.
For experiment [6], the target named is T1, GFOGER peptide, …. Description: SPR, Aegyptin over immobilized cross-linked GFOGER peptide, two-state model.

B1: recombinant Aegyptin, O01949 20-273 (protein)
chain: RPMPEDEEPVAEGGDDDASGESEGEEETTDDAGGDGGEEENEGEEHAGDKDAGGEDTGKEENTGHDDAGEEDAGEEDAGEEDAGEEDAGEEDAEKEEGEKEDAGDDAGSDDGEEDSTGGDEGEDNAEDSKGSEKNDPADTYRQVVALLDKDTKVDHIQSEYLRSALNNDLQSEVRVPVVEAIGRIGDYSKIQGCFKSMGKDVKKVISEEEKKFKSCMSKKKSEYQCSEDSFAAAKSKLSPITSKIKSCVSSKGRHHHHHH
In experiment [1], B1 displayed a kon of 406000 M⁻¹ s⁻¹. The koff in experiment [2] was 0.943 s⁻¹. In addition, in experiment [3], the IC50 was found to be 300 nM and the Kd stood at 139 nM. In experiment [4], the Kd amounted to 139 nM, the Kd2 (two-state model) was 0.00194 s⁻¹ and the second Ka of the two-state model came out at 0.000981 M⁻¹ s⁻¹. In experiment [5], this molecule came in with a koff of 0.013 s⁻¹ and a kon of 61900 M⁻¹ s⁻¹. In addition, in experiment [6], the Kd was 2400 nM, the Kd2 (two-state model) worked out at 0.00261 s⁻¹ and the second Ka of the two-state model came out at 0.000366 M⁻¹ s⁻¹.

A word on the kon: it is the second-order rate constant of association. Low readings indicate slower complex formation, high ones faster complex formation. By koff is commonly meant a measure of how fast the partners let go of each other. The low end stands for slow dissociation, the high end for fast dissociation. By IC50 is commonly meant the concentration that gives 50% inhibition. Higher therefore signals weaker potency. Usually Kd stands for a measure of binding affinity in units of concentration. A lower Kd goes with tighter binding.
